Measurements: paper PMC8548206, “Single-domain antibody screening by isPLA-seq” (Life Science Alliance, 2021)

B1: purified anti-SQSTM1 sdAb clone #2 (VHH)
VHH: QVQLVESGGGSVQAGGSLRLSCTASGGSEYSYSTFSLGWFRQAPGQEREAVAAIASMGGLTYYADSVKGRFTISRDNAKNTVTLQMNNLKPEDTAIYYCAARAGVCGVVGSFSMYTIGNWVYWGQGTQVTVSS
B2: anti-SQSTM1 sdAb #7 (Flag-tagged, sdAb library) (VHH)
VHH: QVQLVESGGGSVQAGGSLRLSCTASGGSEYSYSTFSLGWFRQAPGQEREAVAAIASMGGLTYYADSVKGRFTISRDNAKNTVTLQMNNLKPEDTAIYYCAAAYIAKRPCCDCREVQWGSRTCWGQGTQVTVSS
notes: 21-aa CDR3 in place of the CDR3 of cAbBCII10; source: HEK293T, transfected (sdAb library in pcDNA3.1), in fixed cells; not shown: 3x Flag, C-terminal, kept
B3: anti-SQSTM1 sdAb #9 (Flag-tagged, sdAb library) (VHH)
VHH: QVQLVESGGGSVQAGGSLRLSCTASGGSEYSYSTFSLGWFRQAPGQEREAVAAIASMGGLTYYADSVKGRFTISRDNAKNTVTLQMNNLKPEDTAIYYCAADRGCHSTLGSRISFFKGCIIGWGQGTQVTVSS
notes: as for B2
B4: Flag-tagged anti-SQSTM1 sdAb clone #1 (VHH)
VHH: QVQLVESGGGSVQAGGSLRLSCTASGGSEYSYSTFSLGWFRQAPGQEREAVAAIASMGGLTYYADSVKGRFTISRDNAKNTVTLQMNNLKPEDTAIYYCAAEGLVYWTTKKSFGGCLLHDWSWGQGTQVTVSS
notes: 21-aa CDR3 in place of the CDR3 of cAbBCII10; also called anti-SQSTM1 clone #1; sdAb #1; source: HEK293T, transfected (sdAb library in pcDNA3.1), in fixed cells; not shown: 3x Flag, C-terminal, kept
B5: purified anti-SQSTM1 sdAb clone #1, C-terminal ETA-fused and Flag-tagged (VHH)
VHH: B4 VHH
notes: also called anti-SQSTM1 sdAb #1; ETA-tagged anti-SQSTM1 sdAb
B6: anti-SQSTM1 sdAb #8 (Flag-tagged, sdAb library) (VHH)
VHH: QVQLVESGGGSVQAGGSLRLSCTASGGSEYSYSTFSLGWFRQAPGQEREAVAAIASMGGLTYYADSVKGRFTISRDNAKNTVTLQMNNLKPEDTAIYYCAAARVFMPCTPSHIIGAMCTLACWGQGTQVTVSS
notes: as for B2

How the values were obtained:
[1] = target: T1, Sqstm1 (endogenous, LLC1 cells) (Mus musculus (Mouse)., UniProt Q64337); test: far-Western, overlay or dot blot; details: one partner purified
T1 construct: mouse Sqstm1, endogenous in Lewis lung carcinoma (LLC1) cells; also called denatured Sqstm1; source: endogenous, LLC1 cells (lysate for Western blot; fixed cells for staining)

HA-tagged SQSTM1 = target: T2, HA-tagged SQSTM1 (Homo sapiens (Human)., UniProt Q13501); test: proximity ligation; pooled screen (isPLA-seq): Flag-tagged sdAb library co-transfected with HA-tagged SQSTM1 into HEK293T cells, fixed after 48 h, isPLA with anti-HA and anti-Flag antibodies, positive cells sorted by FACS, three rounds, CDR3 sequenced; details: partners not purified
T2 construct: autophagy receptor SQSTM1, full length; the printed limits 1-440 fit the human protein; also called HA-tagged bait; full length; source: HEK293T, transfected, in fixed cells (screen)

[2] = target: T3, HA-tagged SQSTM1 C-terminal region (221–440 aa) (Homo sapiens (Human)., UniProt Q13501); test: proximity ligation; single sdAb DNA transfected along with HA-tagged SQSTM1 or its truncations; isPLA with anti-HA and anti-Flag antibodies 48 h after transfection; details: partners not purified
T3 construct: also called C-terminal SQSTM1; source: transfected, in cells (isPLA, co-IP)

[3] = target: T4, HA-tagged SQSTM1 N-terminal region (1–220 aa) (Homo sapiens (Human)., UniProt Q13501); test: as above; details: partners not purified
T4 construct: SQSTM1, residues 1-220; also called N-terminal region of SQSTM1 (1–220 aa); source: transfected, in cells (isPLA)

GST-SQSTM1, 221–440 aa = GST-SQSTM1, 221–440 aa (Homo sapiens (Human)., UniProt Q13501); test: ITC; details: both partners purified

Binder | binding result (HA-tagged SQSTM1) | also measured
B1 | – | binding result [1]: binds
B2 | binds | –
B3 | binds | –
B4 | binds | binding result [2]: binds; binding result [3]: no binding
B5 | – | Kd (GST-SQSTM1, 221–440 aa): 8.8 ± 1.39 µM
B6 | binds | –
